Columns and labels:
[1] = molecular target: 4ZEV (designed four zinc finger - estrogen receptor - VP16 activator) (synthetic construct); test: cell_activity; yeast reporter, modified GAL1 promoter, 15 min after beta-estradiol; conditions: tags: 4Z DBD replaces Gal4 DBD of GEV
[2] = molecular target: ZEV (Zif268 zinc fingers - estrogen receptor - VP16 activator) (synthetic construct, UniProt P18146 SEQ:1-87); test: as above

Binder	activity [1]	activity [2]
4Z in vivo target (three pairs of sites) (dsDNA) DNA 1: GCGGCGGAGGAGTGCGGCGGAGGAGGAGCGGCGGAGGAGTGCGGCGGAGGAGGAGCGGCGGAGGAGTGCGGCGGAGGAG DNA 2: CTCCTCCGCCGCACTCCTCCGCCGCTCCTCCTCCGCCGCACTCCTCCGCCGCTCCTCCTCCGCCGCACTCCTCCGCCGC	> 50 fold induction of GFP transcripts	
Zif in vivo target (three pairs of sites) (dsDNA) DNA 1: GCGTGGGCGTGCGTGGGCGGGCGTGGGCGTGCGTGGGCGGGCGTGGGCGTGCGTGGGCG DNA 2: CGCCCACGCACGCCCACGCCCGCCCACGCACGCCCACGCCCGCCCACGCACGCCCACGC		> 50 fold induction of GFP transcripts

Source: patent US20140128287, “SYSTEMS FOR INDUCTION OF GENE EXPRESSION AND PROTEIN DEPLETION IN YEAST” (THE TRUSTEES OF PRINCETON UNIVERSITY, published 2014)
